Measured values as given in patent US8507245B2, “Site-directed pegylation of arginases and the use thereof as anti-cancer and anti-viral agents” (priority 2009, dated 2013).
Numbering of substitutions follows the chain as printed. Numbers in names are those of the source. Read-outs that look alike come from different tables or passages of the source.

Key:
[1] = test system: HCT-15 human colorectal cancer cells; type: in vivo, BALB/c nude mice
Description: Athymic nude BALB/c mice (age of 6-8 weeks) were housed under sterile conditions with 12 hour light-dark cycle and provided with autoclaved feed ad libitum. The mice were acclimated for at least 1 week before the start of experiments. Each nude mouse was implanted with ˜3 mm^3 of in vivo maintained HCT-15 human colorectal cancer cells to the right axilla subcutaneously. When stable palpable tumours of ˜5 mm diameter were developed, the mice were randomly separated into five different groups (Table 6). Intraperitoneal administrations of arginase drugs or control vehicle (PBS) were given twice per week while 5-fluorouracil was given once per week starting from Day 0. Tumour dimensions (L: longest diameter and W: its perpendicular diameter) and body weights were measured on every Mondays, Wednesdays and Fridays with Vernier caliper. Tumour volume was calculated with the formula (½×L×W^2) and no. of fold increase in tumour volume (relative tumour volume) was calculated with reference to Day-0. The results were plotted against time. The mice were euthanized at the end of experiment or when tumour diameter reached 2.5 cm.

[2] = test system: hepatocellular carcinoma Hep3B cells; type: in vivo, BALB/c nude mice; details: for effect on tumour growth (tumour volume) vs PBS control: 500 Units/mouse i.p. weekly for 8 weeks, HAI-PEG20 effect from Day 47 (p<0.01); for average body weight: mouse, in vivo, ip
Description: A number of BALB/c nude mice were injected with hepatocellular carcinoma Hep3B cells intraperitoneally (i.p.) and maintained in vivo. Then each of the 30 BALB/c nude mice was injected with ˜1×10^6 of the in vivo maintained cancer cells to the right axilla subcutaneously. When palpable tumours of 5 mm diameter were developed, the mice were separated into three different groups (see Table 3). Drugs or PBS buffer were administered intraperitoneally weekly starting on day 0 for 8 weeks. Body weights and tumour dimensions (L: length of the longer diameter and W: length of the shorter diameter of the tumour) were measured twice a week. Tumour volume (½×L×W^2) was calculated and plotted against time. After 60 days or when tumour diameter reached 2.5 cm, the mice were euthanized. Survival rates of the mice were recorded at the end of the study.

blood arginine = test: Pharmacodynamics: depletion of arginine in BALB/c normal mice; type: in vivo; details: plasma, single i.p. dose
Description: Pharmacodynamics of Cys^45 pegylated human arginase I and Cys^161 pegylated Bacillus caldovelox arginase were studied using BALB/c normal mice. The study was carried out in conjunction with the pharmacokinetic study (described below). Therefore, the protocol remained the same. Again, the blood samples collected was centrifuged immediately at 13,200 rpm for 5 minutes and the plasma layer were collected for further analysis using the Amino Acid Analyzer (Biochrom 30, Biochrom Ltd., England).

HIV-1 strain RF = test: HIV replication (virus inhibition) assay in H9 cells
MDA-MB-231 = test: Cell proliferation assay (MTT, Table 11); type: cell-based; details: MDA-MB-231 breast, 3 days
4T1 = test: Cell proliferation assay (MTT, Table 11); type: cell-based, mouse; details: 4T1 breast, 3 days
Description: 1×10^5 cells of a mouse metastatic breast cancer cell line (4T1) were injected orthotopically into the No. 4 inguinal mammary fat pad of wild-type BALB/c mice at the age of 6-8 weeks. When the tumors reached an average of 5 mm, the mice were divided into two different treatment groups (Table 7). BCA-PEG20 (250 U/mouse) or control vehicle (PBS) were injected intraperitoneally twice per week starting from Day 0. Body weight was measured every week. After three weeks, the mice were sacrificed and analyzed for the lung metastasis. The number of lung metastases was counted under a dissecting microscope after rinsing with PBS.
Cell Proliferation Assay: For each cancer cell line, cells (5×10^3) in 100 μL culture medium were seeded to the wells of a 96-well plate and incubated for 24 hours by standard method.

[3] = Steady-state kinetics of human arginase I with Mn2+ or Co2+ (DAMO assay); type: biochemical; details: for Km: sodium phosphate buffer pH 7.4, 25° C.
Description: Diacetylmonoxine (DAMO) assay was used to determine the kinetic parameters of human arginase with different metal cofactors. All enzymatic reactions were carried out at pH 7.4.

[4] = sodium phosphate buffer pH 7.4, 25° C.
Description: Either Bacillus caldovelox arginase (BCA) or the human arginase I (HAI) was expressed as described previously. The purification method was the same as described before except 10 mM of metal ion (CoSO4 or MnSO4) was added into the purified protein elution from Nickel affinity chromatography instead of added before Nickel affinity chromatography. Eluted factions containing the arginase enzyme were incubated with 10 mM metal for 15 min at 50˜55° C., followed by filtration through a 0.45 μm syringe filter. Then the solution was exchanged with storage buffer by ultrafiltration.
The mutant genes were cloned, expressed and purified for detailed studies.

O=c1[nH]cc(F)c(=O)[nH]1 [5-fluorouracil]
effect on tumour growth vs control ([1]; arginases i.p. twice per week (BCA 500, BCA-PEG20 250 Units/mouse), 5-fluorouracil 10 mg/kg once per week): did not show significant tumour suppression
average body weight, last recorded ([1]; mouse, in vivo): 24.5 ± 1.4 g

B1: HAI-PEG20: Cys^45-specific mono-pegylated 6xHis-tagged human arginase I mutant (C168S/C303S) with single chain mPEG-maleimide (20 kDa) (conjugate, UniProt P05089 1-322, looked up, variant C168S C303S)
Arginase-1: MSAKSRTIGIIGAPFSKGQPRGGVEEGPTVLRKAGLLEKLKEQECDVKDYGDLPFADIPNDSPFQIVKNPRSVGKASEQLAGKVAEVKKNGRISLVLGGDHSLAIGSISGHARVHPDLGVIWVDAHTDINTPLTTTSGNLHGQPVSFLLKELKGKIPDVPGFSWVTPSISAKDIVYIGLRDVDPGEHYILKTLGIKYFSMTEVDRLGIGKVMEETLSYLLGRKKRPIHLSFDVDGLDPSFTPATGTPVVGGLTYREGLYITEEIYKTGLLSGLDIMEVNPSLGKTPEEVTRTVNTAVAITLASFGLAREGNHKPIDYLNPPK
modifications: 20 kDa mPEG-maleimide at Cys45; 6xHis tag
effect on tumour growth (tumour volume) vs PBS control [2]: significantly reduced the rate of tumour growth
average body weight [2]: 25.0 ± 0.2 g
time at which arginine started to appear after arginase administration (blood arginine): 6.8 ± 2.3 days
arginine depletion (blood arginine; starting from 6 hr (Day 0)): totally depleted
ornithine level (blood arginine; stayed at high level up to Day 3): > 150 µM
wells displaying cytopathic effect (positive wells/wells inoculated) (HIV-1 strain RF; 1 U/mL): 8/8
wells displaying cytopathic effect (positive wells/wells inoculated) (HIV-1 strain RF; 10 U/mL): 6/8
wells displaying cytopathic effect (positive wells/wells inoculated) (HIV-1 strain RF; 50 U/mL): 3/8
IC50 on HIV (HIV-1 strain RF; H9 cells, five days post infection, cytopathic effect): approximately 37 U/mL

B2: HAI: non-pegylated 6xHis-tagged recombinant human arginase I (protein, UniProt P05089 1-322, looked up)
Arginase-1: B1 Arginase-1 with S168C, S303C
modifications: 6xHis tag
notes: non-pegylated 6xHis-tagged recombinant human arginase I
effect on tumour growth (tumour volume) vs PBS control [2]: did not show any significant effect
average body weight [2]: 25.5 ± 0.2 g
IC50 (MDA-MB-231): 0.273 U/mL
IC50 (4T1): 0.058 U/mL

B3: HAI Mn^2+: recombinant human arginase I with Mn^2+ as metal cofactor (protein, UniProt P05089 1-322, looked up)
Arginase-1: B1 Arginase-1 with S168C, S303C
modifications: Mn2+ cofactor
notes: recombinant human arginase I with Mn^2+ as metal cofactor
Km [3]: 1830 µM

B4: HAI Co^2+: recombinant human arginase I with cobalt replacing manganese as metal cofactor (protein, UniProt P05089 1-322, looked up)
Arginase-1: B1 Arginase-1 with S168C, S303C
modifications: cobalt cofactor
improvement of Km value vs HAI Mn^2+ ([3]; pH 7.4, 25° C.): about 10 fold
Km [3]: 190 µM

B5: BCA mutant V20P Mn^2+ (protein, UniProt P53608 1-299, looked up, variant V20P)
Arginase: MKPISIIGVPMDLGQTRRGPDMGPSAMRYAGVIERLERLHYDIEDLGDIPIGKAERLHEQGDSRLRNLKAVAEANEKLAAAVDQVVQRGRFPLVLGGDHSIAIGTLAGVAKHYERLGVIWYDAHGDVNTAETSPSGNIHGMPLAASLGFGHPALTQIGGYSPKIKPEHVVLIGVRSLDEGEKKFIREKGIKIYTMHEVDRLGMTRVMEETIAYLKERTDGVHLSLDLDGLDPSDAPGVGTPVIGGLTYRESHLAMEMLAEAQIITSAEFVEVNPILDERNKTASVAVALMGSLFGEKLM
modifications: Mn2+
Km [4]: ~1290 µM

B6: BCA mutant V20P Co^2+ (protein, UniProt P53608 1-299, looked up, variant V20P)
Arginase: B5 Arginase
modifications: Co2+
Km [4]: ~180 µM

B7: BCAWTMn^2+: wild-type Bacillus caldovelox arginase with Mn^2+ (protein, UniProt P53608 1-299, looked up)
Arginase: B5 Arginase with P20V
modifications: Mn2+
Km [4]: ~3200 µM
